System: HT29 human colon cancer cells
Test: Cytotoxicity (viability) test on HT29 cells, methylene blue staining
Type: cell-based
Details: TRAIL alone, sublethal doses 25, 50 and 100 ng/ml, 24 hours
Procedure: FIG. 1: Graphs illustrating the synergy observed in vitro between TRAIL and P. freudenreichii metabolites. HT29 colon cancer cells were treated with sublethal doses of TRAIL (25 ng/ml, 50 ng/ml and 100 ng/ml). Various doses of SCFA (propionate/acetate SCFA, FIG. 1A) or of P. freudenreichii supernatant (FIG. 1B) were used in co-treatment. Viability of the HT29 cells was determined after 24 hours of treatment. […] More precisely, the viability illustrated in FIG. 1 was determined using the following cytotoxicity test. HT29 human colon cancer cells (ATCC, Biovalley) were cultured in 96-well plates (30,000 cells/well) for 24 hours. […] At the end of treatment (24 hours), the medium was discarded and the adherent cells were washed three times with 1× PBS (100 μl/well) and fixed in 99% ethanol (100 μl/well) for 30 minutes. After discarding the ethanol, the fixed cells were air dried and then stained for 30 minutes with methylene blue (diluted in 1× borate buffer). After three washings in water and drying (roughly 30 minutes), 100 μl of hydrochloric acid (0.1 N) was added to the wells. The plates were then analyzed by spectrophotometer at a wavelength of 620 nm (iEMS Reader MF; Lab-systems, Helsinki, Finland).

B1: TRAIL: cytokine TNF-related apoptosis-inducing ligand; SuperKillerTRAIL™ (Alexis Biochemicals) used in the HT29 test (protein)
chain: TSEETISTVQEKQQNISPLVRERGPQRVAAHITGTRGRSNTLSSPNSKNEKALGRKINSWESSRSGHSFLSNLHLRNGELVIHEKGFYYIYSQTYFRFQEEIKENTKNDKQMVQYIYKYTSYPDPILLMKSARNSCWSKDAEYGLYSIYQGGIFELKENDRIFVSVTNEHLIDMDHEASFFGAFLVG
cell death (viability of HT29 cells): do not significantly induce cell death
